Laboratory results: patent US20210147541A1 (Kyowa Kirin, published 2021)
Where two headings read alike, the source gives them in different places.

Tests used:
[1] = biological target: T1, human CADM3 (human, UniProt Q8N126 25-398); experiment: flow cytometry, 10 ug/mL, human CADM3/Expi293F vs parent Expi293F cells
T1 construct: Full-length gene expressed transiently on Expi293F cells; also called cell adhesion molecule 3; human CADM3/Expi293F cells
T1 sequence: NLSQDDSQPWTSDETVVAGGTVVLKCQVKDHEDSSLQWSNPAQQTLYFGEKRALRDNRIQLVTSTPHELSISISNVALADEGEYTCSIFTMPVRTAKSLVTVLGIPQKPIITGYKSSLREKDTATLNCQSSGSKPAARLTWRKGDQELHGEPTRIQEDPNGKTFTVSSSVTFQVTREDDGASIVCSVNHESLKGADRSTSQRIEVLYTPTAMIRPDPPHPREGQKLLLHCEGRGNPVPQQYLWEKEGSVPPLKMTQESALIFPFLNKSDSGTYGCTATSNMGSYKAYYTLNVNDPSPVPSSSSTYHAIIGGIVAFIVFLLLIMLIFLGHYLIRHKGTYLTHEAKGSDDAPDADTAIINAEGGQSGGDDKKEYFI
Protocol: (§1) After washing with SB, the cells were suspended in SB, and the fluorescence intensity of each cell was measured using a flow cytometer FACS CANTO II (manufactured by Becton, Dickinson and Company). Note that as a negative control, 10 μg/mL of the anti-AVM antibody was used.
(§2) The detection results were analyzed, and a mean fluorescence intensity (MFI) was calculated using a geometric mean. Further, with respect to the MFI when the concentration of each antibody was 10 μg/mL, the ratio of the MFI (mean fluorescence intensity ratio) between the human CADM3/Expi293F cells and the Expi293F cells (parent cell line) was calculated.
(§3) With respect to the produced humanized anti-CADM3 VHH-Fc antibodies, reactivity with Expi293F cells, human CADM3/Expi293F cells, and mouse CADM3/Expi293F cells was analyzed by the same procedure as in Example 3.

[2] = biological target: T2, mCADM3-GST (mouse); experiment: SPR (Biacore T-100), antibody captured, mCADM3-GST as analyte
T2 construct: also called extracellular domain of mouse CADM3 to which GST was added at the C-terminal side; mouse CADM3-GST
Protocol: (§4) The affinity of the anti-CADM3 antibodies produced in Example 2 for human CADM3 and mouse CADM3 was measured using Biacore T-100 (GE Healthcare). Each of the antibodies was immobilized on a […] sensor chip using a Human antibody Capture kit, and the binding ability was evaluated using hCADM3-GST and mCADM3-GST produced in Example 4 as analytes.
(§5) With respect to the produced humanized anti-CADM3 antibodies, affinity for CADM3 by surface plasmon resonance detection was evaluated by the same procedure as in Example 6.

[3] = biological target: T3, mouse CADM3 (mouse, UniProt Q99N28 23-396); experiment: flow cytometry, 10 ug/mL, mouse CADM3/Expi293F vs parent Expi293F cells
T3 construct: Full-length gene expressed transiently on Expi293F cells; also called mouse CADM3/Expi293F cells; Mouse CADM3-expressing cells
T3 sequence: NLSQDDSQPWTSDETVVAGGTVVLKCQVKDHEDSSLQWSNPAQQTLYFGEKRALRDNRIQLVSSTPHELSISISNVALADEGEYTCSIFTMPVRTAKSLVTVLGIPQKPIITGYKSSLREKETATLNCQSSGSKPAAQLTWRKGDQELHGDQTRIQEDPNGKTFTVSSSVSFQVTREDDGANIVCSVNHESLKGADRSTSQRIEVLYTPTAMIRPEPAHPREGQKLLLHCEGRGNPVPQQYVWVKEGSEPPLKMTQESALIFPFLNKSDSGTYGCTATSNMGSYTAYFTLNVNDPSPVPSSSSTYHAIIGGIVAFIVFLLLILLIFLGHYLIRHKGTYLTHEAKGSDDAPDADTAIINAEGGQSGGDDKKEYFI
Protocol: as §1, §2, §3

[4] = biological target: T4, hCADM3-GST (human); experiment: SPR (Biacore T-100), antibody captured, hCADM3-GST as analyte
T4 construct: also called extracellular domain of human CADM3 to which GST was added at the C-terminal side; human CADM3-GST
Protocol: as §4, §5

[5] = biological target: T4, hCADM3-GST; experiment: phage ELISA, hCADM3-GST immobilized
Protocol: (§6) In the ELISA, hCADM3-GST and mCADM3-GST were immobilized (50 ng/50 μL) on MAXISORP (manufactured by NUNC, Inc.), followed by blocking using 0.5% BSA. To each well, each phage clone was added and allowed to react at room temperature for 1 hour, and thereafter, each well was washed 5 times with PBS-T. Subsequently, a biotinylated anti-M13 phage antibody (manufactured by Abcam plc) and horseradish peroxidase-labeled streptavidin (manufactured by Vector Co., Ltd.) were added to each well in an amount of 50 μL, followed by incubation at room temperature for 1 hour.
(§7) After the microplate was washed with PBS-T, a 3,3′,5,5′-tetramethylbenzidine (TMB) chromogenic substrate solution (manufactured by Calbiochem, Inc.) was added to each well, followed by incubation at room temperature. The coloring reaction was stopped by adding a 1 mol/L hydrochloric acid to each well, and an absorbance at a wavelength of 450 nm (reference wavelength: 570 nm) was measured using a microplate reader.

[6] = biological target: T2, mCADM3-GST; experiment: phage ELISA, mCADM3-GST immobilized
Protocol: as §6, §7

[7] = biological target: T3, mouse CADM3; experiment: flow cytometry, 10 ug/mL, mouse CADM3/Expi293F vs parent Expi293F cells; remark: listed apart in the source
Protocol: as §1, §2
Further, also with respect to AVM IgG4PE(R409K)_iCADM3_3R1-L5 dVHH, AVM IgG4PE(R409K)_iCADM3_3R1-L8 dVHH, AVM IgG4PE(R409K)_iCADM3_3R1-L10 dVHH, and AVM IgG4PE(R409K)_iCADM3_3R1-L11 dVHH, reactivity with the Expi293F cells, the human CADM3/Expi293F cells, and the mouse CADM3/Expi293F cells was analyzed by the same procedure, and the results are shown in Table 5.

[8] = biological target: T3, mouse CADM3; experiment: as above; remark: listed apart in the source
Protocol: as §1, §2, §3

[9] = biological target: T3, mouse CADM3; experiment: flow cytometry, mouse CADM3/Expi293F vs parent Expi293F cells
[10] = biological target: T3, mouse CADM3; experiment: flow cytometry, 10 ug/mL, mouse CADM3/Expi293F vs parent Expi293F cells; remark: listed apart in the source

B1: iCADM3_3R1-L8_04 VHH-hG4PE(R409K) (Fc fusion)
chain: QVQLVESGGGLVQPGGSLRLSCAASGRTFSNYARGWFRQAPGKEREFVAAIDYSGGSTNYADSAKGRFTISRDNSKNTVYLQMNSLRAEDTAVYYCAAPASRRPSWDADGYDYWGQGTLVTVSS
notes: also called iCADM3-3R1-L8_04 humanized antibody; not shown: Hinge-CH2-CH3 region of the human IgG4 heavy chain constant region (IgG4 variant)
Mean fluorescence intensity ratio [1]: 6.2 | Kd [2]: 5.22 nM | koff [2]: 0.00064 s⁻¹ | kon [2]: 120000 M⁻¹ s⁻¹ | Mean fluorescence intensity ratio [3]: 9.62 | Kd [4]: 5.34 nM | koff [4]: 0.00078 s⁻¹ | kon [4]: 150000 M⁻¹ s⁻¹

B2: iCADM3_3R1-L8_01 VHH-hG4PE(R409K) (Fc fusion)
chain: QVQLVQSGGGLVQPGGSLRLSCAASGRTFSNYARGWFRQAPGKGREFVAAIDYSGGSTNYADSAKGRFTISRDNSKNTLYLQMNSLRAEDTAVYYCAAPASRRPSWDADGYDYWGQGTLVTVSS
notes: also called iCADM3-3R1-L8_01 humanized antibody; not shown: Hinge-CH2-CH3 region of the human IgG4 heavy chain constant region (IgG4 variant)
Mean fluorescence intensity ratio [1]: 2.21 | Mean fluorescence intensity ratio [3]: 3.71

B3: iCADM3_3R1-L8_03 VHH-hG4PE(R409K) (Fc fusion)
chain: QVQLVESGGGLVQPGGSLRLSCAASGRTFSNYARGWFRQAPGKGREFVAAIDYSGGSTNYADSAKGRFTISRDNSKNTVYLQMNSLRAEDTAVYYCAAPASRRPSWDADGYDYWGQGTLVTVSS
notes: also called iCADM3-3R1-L8_03 humanized antibody; not shown: Hinge-CH2-CH3 region of the human IgG4 heavy chain constant region (IgG4 variant)
Mean fluorescence intensity ratio [1]: 5.65 | Kd [2]: 7.38 nM | koff [2]: 0.0011 s⁻¹ | kon [2]: 150000 M⁻¹ s⁻¹ | Mean fluorescence intensity ratio [3]: 8.54 | Kd [4]: 10.3 nM | koff [4]: 0.0019 s⁻¹ | kon [4]: 190000 M⁻¹ s⁻¹

B4: iCADM3_3R1-L8_02 VHH-hG4PE(R409K) (Fc fusion)
chain: QVQLVQSGGGLVQPGGSLRLSCAASGRTFSNYARGWFRQAPGKEREFVAAIDYSGGSTNYADSAKGRFTISRDNSKNTLYLQMNSLRAEDTAVYYCAAPASRRPSWDADGYDYWGQGTLVTVSS
notes: also called iCADM3-3R1-L8_02 humanized antibody; not shown: Hinge-CH2-CH3 region of the human IgG4 heavy chain constant region (IgG4 variant)
Mean fluorescence intensity ratio [1]: 2.8 | Mean fluorescence intensity ratio [3]: 4.83

B5: iCADM3_3R1-L5 (VHH)
VHH: QVQLVESGGGLVQAGGSLRLSCAASGSIVSVNAMGWYRQAPGKQRELVATITSGGSTNYADSAKGRFTISRDNAKNTMYLQMNSLKPEDTAVYYCNGEFWSRRDTRPPGVVNYWGQGTQVTVSS
notes: also called iCADM3-3R1-L5 antibody; anti-CADM3 VHH antibody (phage clone)
binding result [5]: binds | binding result [6]: binds

B6: iCADM3_3R1-L11 (VHH)
VHH: QVQLVESGGGLVQAGGSLRLSCAASGSIFSFNAMGWYRQAPGKQRGLVAVITSGGYTNYADSVKGRFTITRDNAKNTVYLQMNSLKPEDTAVYYCNAEGVYSDYVIMNYWGQGTQVTVSS
notes: also called iCADM3-3R1-L11 antibody; anti-CADM3 VHH antibody (phage clone)
binding result [5]: binds | binding result [6]: binds

B7: AVM IgG4PE(R409K)_iCADM3_3R1-L5 dVHH (bispecific antibody)
heavy: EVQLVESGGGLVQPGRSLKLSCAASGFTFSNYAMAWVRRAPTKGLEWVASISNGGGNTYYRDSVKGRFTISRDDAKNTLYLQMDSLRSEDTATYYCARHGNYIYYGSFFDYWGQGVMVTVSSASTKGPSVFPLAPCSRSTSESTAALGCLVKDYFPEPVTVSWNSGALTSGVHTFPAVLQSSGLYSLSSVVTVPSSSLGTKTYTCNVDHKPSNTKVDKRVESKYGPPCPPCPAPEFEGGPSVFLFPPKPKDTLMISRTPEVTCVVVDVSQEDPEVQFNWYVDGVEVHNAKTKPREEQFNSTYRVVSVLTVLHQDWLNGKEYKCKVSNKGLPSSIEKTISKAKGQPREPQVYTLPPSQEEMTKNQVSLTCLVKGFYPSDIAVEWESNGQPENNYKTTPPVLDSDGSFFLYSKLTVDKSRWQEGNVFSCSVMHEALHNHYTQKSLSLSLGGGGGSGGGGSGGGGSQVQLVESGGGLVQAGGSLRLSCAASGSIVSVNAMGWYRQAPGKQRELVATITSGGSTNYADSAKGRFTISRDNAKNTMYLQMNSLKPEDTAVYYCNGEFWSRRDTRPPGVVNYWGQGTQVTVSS
light: QFVLSQPNSVSTNLGSTVKLSCKRSTGNIGSNYVSWYQQHEGRSPTTMIYRDDKRPDGVPDRFSGSIDRSSDSALLTINNVQTEDEADYFCQSYSSGINIFGGGTKLTVLGQPKAAPSVTLFPPSSEELQANKATLVCLISDFYPGAVTVAWKADSSPVKAGVETTTPSKQSNNKYAASSYLSLTPEQWKSHRSYSCQVTHEGSTVEKTVAPTECS
notes: also called anti-AVM-IgG4-CADM3 VHH bispecific antibody
Mean fluorescence intensity ratio [7]: 1.96

B8: AVM IgG4PE(R409K)_iCADM3_3R1-L10 dVHH (bispecific antibody)
heavy: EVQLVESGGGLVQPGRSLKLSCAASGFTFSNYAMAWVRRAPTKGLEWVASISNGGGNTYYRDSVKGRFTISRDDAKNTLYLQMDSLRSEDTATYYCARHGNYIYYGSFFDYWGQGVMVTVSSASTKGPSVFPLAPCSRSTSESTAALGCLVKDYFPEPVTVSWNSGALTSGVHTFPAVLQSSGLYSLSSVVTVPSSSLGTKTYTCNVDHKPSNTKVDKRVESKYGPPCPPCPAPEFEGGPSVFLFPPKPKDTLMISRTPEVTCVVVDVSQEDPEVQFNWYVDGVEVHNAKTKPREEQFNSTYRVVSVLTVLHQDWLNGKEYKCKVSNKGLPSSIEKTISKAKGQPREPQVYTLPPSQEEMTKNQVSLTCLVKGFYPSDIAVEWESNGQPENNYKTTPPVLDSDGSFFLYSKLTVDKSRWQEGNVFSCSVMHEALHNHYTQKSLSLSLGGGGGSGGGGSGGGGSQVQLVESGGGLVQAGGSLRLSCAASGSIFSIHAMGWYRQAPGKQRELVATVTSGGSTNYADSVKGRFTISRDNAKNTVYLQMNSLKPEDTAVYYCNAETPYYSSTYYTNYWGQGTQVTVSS
light: QFVLSQPNSVSTNLGSTVKLSCKRSTGNIGSNYVSWYQQHEGRSPTTMIYRDDKRPDGVPDRFSGSIDRSSDSALLTINNVQTEDEADYFCQSYSSGINIFGGGTKLTVLGQPKAAPSVTLFPPSSEELQANKATLVCLISDFYPGAVTVAWKADSSPVKAGVETTTPSKQSNNKYAASSYLSLTPEQWKSHRSYSCQVTHEGSTVEKTVAPTECS
notes: as for B7
Mean fluorescence intensity ratio [7]: 1.78

B9: AVM IgG4PE(R409K)_iCADM3_3R1-L8 dVHH (bispecific antibody)
heavy: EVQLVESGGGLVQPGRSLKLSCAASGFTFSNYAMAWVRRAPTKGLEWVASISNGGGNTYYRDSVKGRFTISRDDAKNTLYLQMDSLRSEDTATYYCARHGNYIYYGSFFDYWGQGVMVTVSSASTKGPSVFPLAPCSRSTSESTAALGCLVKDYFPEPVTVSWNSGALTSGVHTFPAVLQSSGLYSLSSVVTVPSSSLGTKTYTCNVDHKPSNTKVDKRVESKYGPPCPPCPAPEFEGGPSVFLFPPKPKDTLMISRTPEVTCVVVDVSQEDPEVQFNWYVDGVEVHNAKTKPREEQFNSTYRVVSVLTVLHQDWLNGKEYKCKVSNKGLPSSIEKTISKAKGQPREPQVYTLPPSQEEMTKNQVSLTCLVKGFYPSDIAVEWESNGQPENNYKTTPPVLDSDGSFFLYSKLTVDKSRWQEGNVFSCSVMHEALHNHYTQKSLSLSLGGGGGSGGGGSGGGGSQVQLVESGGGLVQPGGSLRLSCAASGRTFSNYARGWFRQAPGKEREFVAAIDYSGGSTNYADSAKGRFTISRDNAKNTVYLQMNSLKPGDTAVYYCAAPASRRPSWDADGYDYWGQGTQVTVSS
light: QFVLSQPNSVSTNLGSTVKLSCKRSTGNIGSNYVSWYQQHEGRSPTTMIYRDDKRPDGVPDRFSGSIDRSSDSALLTINNVQTEDEADYFCQSYSSGINIFGGGTKLTVLGQPKAAPSVTLFPPSSEELQANKATLVCLISDFYPGAVTVAWKADSSPVKAGVETTTPSKQSNNKYAASSYLSLTPEQWKSHRSYSCQVTHEGSTVEKTVAPTECS
notes: as for B7
Mean fluorescence intensity ratio [7]: 3.65

B10: AVM IgG4PE(R409K)_iCADM3_3R1-L11 dVHH (bispecific antibody)
heavy: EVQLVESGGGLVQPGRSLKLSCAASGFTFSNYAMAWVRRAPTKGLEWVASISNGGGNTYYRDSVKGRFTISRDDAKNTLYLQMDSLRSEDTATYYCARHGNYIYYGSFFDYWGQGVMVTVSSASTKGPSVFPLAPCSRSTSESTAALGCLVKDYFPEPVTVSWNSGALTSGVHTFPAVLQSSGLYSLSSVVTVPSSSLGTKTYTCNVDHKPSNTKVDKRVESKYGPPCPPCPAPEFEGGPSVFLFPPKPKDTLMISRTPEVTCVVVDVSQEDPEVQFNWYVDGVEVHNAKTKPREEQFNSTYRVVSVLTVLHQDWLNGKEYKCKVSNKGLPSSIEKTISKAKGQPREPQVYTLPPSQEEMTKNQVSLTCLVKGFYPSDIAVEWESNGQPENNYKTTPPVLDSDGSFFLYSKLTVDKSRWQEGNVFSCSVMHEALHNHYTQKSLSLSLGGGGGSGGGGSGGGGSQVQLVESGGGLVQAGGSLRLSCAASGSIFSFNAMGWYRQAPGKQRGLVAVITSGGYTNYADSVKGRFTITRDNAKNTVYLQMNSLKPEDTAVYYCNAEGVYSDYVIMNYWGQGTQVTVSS
light: QFVLSQPNSVSTNLGSTVKLSCKRSTGNIGSNYVSWYQQHEGRSPTTMIYRDDKRPDGVPDRFSGSIDRSSDSALLTINNVQTEDEADYFCQSYSSGINIFGGGTKLTVLGQPKAAPSVTLFPPSSEELQANKATLVCLISDFYPGAVTVAWKADSSPVKAGVETTTPSKQSNNKYAASSYLSLTPEQWKSHRSYSCQVTHEGSTVEKTVAPTECS
notes: as for B7
Mean fluorescence intensity ratio [7]: 4.66

B11: iCADM3_3R1-L10 (VHH)
VHH: QVQLVESGGGLVQAGGSLRLSCAASGSIFSIHAMGWYRQAPGKQRELVATVTSGGSTNYADSVKGRFTISRDNAKNTVYLQMNSLKPEDTAVYYCNAETPYYSSTYYTNYWGQGTQVTVSS
notes: also called iCADM3-3R1-L10 antibody; anti-CADM3 VHH antibody (phage clone)
binding result [5]: binds | binding result [6]: binds

B12: anti-AVM antibody (antibody, V domains shown)
VH: EVQLVESGGGLVQPGRSLKLSCAASGFTFSNYAMAWVRRAPTKGLEWVASISNGGGNTYYRDSVKGRFTISRDDAKNTLYLQMDSLRSEDTATYYCARHGNYIYYGSFFDYWGQGVMVTVSS
VL: QFVLSQPNSVSTNLGSTVKLSCKRSTGNIGSNYVSWYQQHEGRSPTTMIYRDDKRPDGVPDRFSGSIDRSSDSALLTINNVQTEDEADYFCQSYSSGINIFGGGTKLTVLG
notes: Negative control; also called chimeric anti-Avermectin (AVM) antibody; anti-AVM-IgG4 antibody
Mean fluorescence intensity ratio [8]: 1.02 | Mean fluorescence intensity ratio [7]: 1.15 | Mean fluorescence intensity ratio [3]: 1.02 | binding result [9]: no binding (tested: 10 ug/mL) | Mean fluorescence intensity ratio [10]: 1.07
